We go through two molecules from PMC10672034, “Characterization of a Type II L-Asparaginase from the Halotolerant Bacillus subtilis CH11” (Life, 2023).

In data set [1] the target is L-ASNasaZP21 (N-terminally truncated type II L-asparaginase of Bacillus subtilis CH11) (Bacillus subtilis CH11) (UniProt O34482). Put plainly: SEC; HiPrep 16/60 Sephacryl S-200 HR, 50 mM Tris-HCl, 100 mM NaCl, pH 8.5, 0.5 mL/min; molecular weight from a standard curve (Protein Standard Mix 15-600 kDa), semi-log graph.
Substrate in data set [2]: NC(=O)C[C@H](N)C(=O)O
The data set can be described thus: Nessler ammonia assay, Lineweaver-Burk plot. The format is biochemical, Bacillus subtilis. The conditions noted are these: pH 9, 60 °C, 10 min, 2-14 mM substrate.

“L-ASNasaZP21 (N-terminally truncated type II L-asparaginase of Bacillus subtilis CH11) (from UniProt O34482 21-375) (enzyme)” displayed a stoichiometry N in data set [1] of 4.

B1: L-ASNasaZP21 (type II L-asparaginase, ansZP21) (Bacillus subtilis subsp. subtilis str. 168; S21P) (protein)
chain: PHSPETKESPKEKAQTQKVSSASASEKKDLPNIRILATGGTIAGADQSKTSTTEYKAGVVGVESLIEAVPEMKDIANVSGEQIVNVGSTNIDNKILLKLAKRINHLLASDDVDGIVVTHGTDTLEETAYFLNLTVKSDKPVVIVGSMRPSTAISADGPSNLYNAVKVAGAPEAKGKGTLVVLNDRIASARYVTKTNTTTTDTFKSEEMGFVGTIADDIYFNNEITRKHTKDTDFSVSNLDELPQVDIIYGYQNDGSYLFDAAVKAGAKGIVFAGSGNGSLSDAAEKGADSAVKKGVTVVRSTRTGNGVVTPNQDYAEKDLLASNSLNPQKARMLLMLALTKTNDPQKIQAYFNEY
notes: signal peptide and Cys20 (first 60 bp) removed; E. coli BL21(DE3)pLysS; homotetramer 155 kDa; forward primer encodes …
Regarding B1, in data set [2], the Michaelis constant (Km) worked out at 4.75 mM.
